In patent US7235648B1, “Yeast cells engineered to produce pheromone system protein surrogates, and uses therefor” (Cadus Technologies, Inc., priority 1993, dated 2007):

T1: yeast Gβγ (Saccharomyces cerevisiae, UniProt P18851+P18852)
T1 construct: Endogenous Gβγ subunits will be provided by the yeast STE4 and STE18 loci; endogenous in cells; host or cells: S. cerevisiae gpa1 tester strains
T1 sequence (P18851 1-423): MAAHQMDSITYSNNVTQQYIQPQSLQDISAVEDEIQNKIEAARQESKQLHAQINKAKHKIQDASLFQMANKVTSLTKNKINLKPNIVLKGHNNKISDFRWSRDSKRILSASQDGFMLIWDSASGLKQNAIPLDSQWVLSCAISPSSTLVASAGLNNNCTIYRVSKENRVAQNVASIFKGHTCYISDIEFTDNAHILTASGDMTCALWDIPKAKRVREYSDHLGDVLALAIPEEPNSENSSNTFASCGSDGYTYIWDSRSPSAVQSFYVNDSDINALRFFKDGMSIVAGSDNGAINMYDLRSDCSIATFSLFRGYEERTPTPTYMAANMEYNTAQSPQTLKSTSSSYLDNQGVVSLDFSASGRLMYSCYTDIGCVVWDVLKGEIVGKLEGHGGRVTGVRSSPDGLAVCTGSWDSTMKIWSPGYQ
T1 sequence (P18852 1-107 limits assumed): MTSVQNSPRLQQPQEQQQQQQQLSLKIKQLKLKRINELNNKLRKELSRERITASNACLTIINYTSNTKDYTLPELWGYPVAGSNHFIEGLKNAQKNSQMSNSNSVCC

T2: C5a receptor (Homo sapiens, UniProt P21730)
T2 sequence (P21730 1-350): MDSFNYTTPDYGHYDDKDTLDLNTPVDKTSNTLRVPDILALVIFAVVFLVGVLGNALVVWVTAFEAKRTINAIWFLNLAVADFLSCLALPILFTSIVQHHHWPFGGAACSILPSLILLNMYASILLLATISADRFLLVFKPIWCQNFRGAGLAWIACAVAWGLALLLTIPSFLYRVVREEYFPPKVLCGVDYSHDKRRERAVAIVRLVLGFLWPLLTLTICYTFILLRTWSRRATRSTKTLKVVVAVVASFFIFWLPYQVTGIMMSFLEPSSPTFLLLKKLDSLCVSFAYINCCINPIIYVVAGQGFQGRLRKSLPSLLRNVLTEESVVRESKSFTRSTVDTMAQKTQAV

T3: induced HL60 cells (Homo sapiens, UniProt P21730)
T3 construct: endogenous in cells; host or cells: induced HL60 cells
T3 sequence (P21730 1-350): T2 sequence (P21730 1-350)

B1: GPA141-Gαi2: first 41 amino acids of GPA1 fused to human Gαi2 (protein)
chain: MGCTVSTQTIGDESDPFLQNKRANDVIEQSLQLEKQRDKNEVKLLLLGAGESGKSTIVKQMKIIHE
B2: C5a: 74 amino acid polypeptide that derives from the fifth component of complement; anaphylatoxin (protein)
chain: TLQKKIEEIAAKYKHSVVKKCCYDGACVNNDETCEQRAARISLGPRCIKAFTECCVVASQLRANISHKDMQLGR

Legend:
yeast Gβγ = molecular target: T1, yeast Gβγ; assay: Coupling of Gα subunits and hybrids to yeast Gβγ: complementation of gpa1 growth arrest phenotype and fus1-HIS3 transcription; format: cell-based
From the text: We have tested the hypothesis that there are switch region determinants involved in the association of Gα with Gβγ by constructing a series of hybrid Gα proteins encoding portions of GPA1 and GαS in different combinations (FIG. 11).
Preferably, levels of Gα and Gβγ subunits are balanced. For example, heterologous Gα subunits may be expressed from a low copy (CEN ARS) vector containing the endogenous yeast GPA1 promotor and the GPA1 3′ untranslated region. The minimum criterion, applied to a heterologous Gα subunit with respect to its ability to couple functionally to the yeast pheromone pathway, is that it complement a gpa1 genotype when expressed from the GPA1 promoter on low copy plasmids or from an integrated, single copy gene. In the work described in this application, all heterologous Gα subunits have been assayed in two biological systems.

C5a receptor [1] = molecular target: T2, C5a receptor; assay: Coupling of the C5a receptor to Gα chimeras in yeast; format: cell-based; parameters: expressed in transfected cells; host or cells: S. cerevisiae CY455 / CY878 carrying GPA1(41)-Gαi2, plasmid Cadus 1303; details: GPA1 promoter; single copy integrated or low copy plasmid
Method: Coupling by chimeric Gα_proteins._The Gα chimeras described above were tested for the ability to couple a mammalian G protein-coupled receptor to the pheromone response pathway in yeast. Results obtained using GPA141-Gαi2 to couple the human C5a receptor to the pheromone response pathway in autocrine strains of yeast are disclosed in Example 10 above.
With this phenomenon, there is an increase in growth on selective media for strains containing heterologous receptor in the absence of ligand. It is possible that some receptor antagonists would decrease LIRMA. It has been noted (Milano, et al. 1994) that specific antagonists reduce LIRMA of the β2 adrenergic receptor when that receptor is overexpressed in transgenic mice.

C5a receptor [2] = molecular target: T2, C5a receptor; parameters: host or cells: mammalian cells (not specified); details: mammalian cells; Boulay et al. 1991; read-out: binding constant of C5a to its receptor; cited from earlier work
induced HL60 cells = molecular target: T3, induced HL60 cells; assay: Competition with radiolabeled C5a for binding on induced HL60 cells; details: C5a expressed in yeast
C5a receptor [3] = molecular target: T2, C5a receptor; assay: Autocrine yeast expressing human C5a receptor and human C5a, growth read-out (fus1-HIS3); format: cell-based; parameters: expressed in transfected cells; host or cells: S. cerevisiae CY455 / CY878 carrying GPA1(41)-Gαi2, plasmid Cadus 1303
From the text: The strain used for this analysis, CY455 (MATαtbt1-1 ura3 leu2 trp1 his3 fus1-HIS3 can1 ste14::TRP1 ste3*1156), contains the following significant modifications. A pheromone inducible HIS3 gene, fus1-HIS3, is integrated at the FUS1 locus. A hybrid gene containing sequence encoding the first 41 amino acids of GPA1 (the yeast Gα subunit) fused to sequence encoding human Gαi2a (minus codons for the N-terminal 33 amino acids) replaces GPA1 at its normal chromosomal location. The yeast STE14 gene is disrupted to lower the basal level of signaling through the pheromone response pathway. The yeast a-factor receptor gene, STE3, is deleted. The last two modifications are probably not essential but appear to improve the signal-to-noise ratio. […]
Three colonies were picked from each transformation and grown overnight in media lacking leucine and uracil, at pH 6.8 with 25 mM PIPES (LEU^− URA^− pH6.8 with 25 mM PIPES). […] The optical density at 600 nm of a 1/20 dilution of these cultures was determined and the cultures were diluted into 25 mM PIPES pH 6.8 to a final OD600 of 0.2. […] For verification of pheromone pathway activation and quanti-fication of the stimulation, the activity of the fus1 promoter was determined colorometrically using a fus1-lacZ fusion in a similar set of strains. […]

Molecule | functional complementation of the growth arrest phenotype of gpa1 strains (yeast Gβγ) | Result (coupling of the C5a receptor to Gα chimeras in yeast) (C5a receptor [1]) | Kd (C5a receptor [2]) [nM] | competition for binding with radiolabeled C5a (induced HL60 cells) | growth on selective plates lacking histidine (pheromone pathway activation via C5a receptor) (C5a receptor [3]; CY455 R+L+ strain, pH 6.8, 1 mM aminotriazole) | aminotriazole concentration on which the R+L+ strain will grow (C5a receptor [3]; CY455 R+L+, highest concentration tested)
B1 | functionally complement | GPA141-Gαi2single copy, Good signal to noise ratio: | – | – | – | –
B2 | – | – | 1 | compete for binding | show growth on the selective plates | up to 5 mM
